These results are taken from publication PMC8561633 (The EMBO Journal, 2021).

Ends that are not written are not given here.

To fix the notation:
B2: Asyn Med peptide (GKNEEGAPQEGI) of alpha‐synuclein, carboxyfluorescein-labeled (peptide)
peptide: GKNEEGAPQEGI
modifications: also: 5(6)-carboxyfluorescein label, site not given here
B3: Asyn top peptide (YEMPSEEGYQDY) of alpha‐synuclein, carboxyfluorescein-labeled (peptide)
peptide: YEMPSEEGYQDY
modifications: also: 5(6)-carboxyfluorescein label, site not given here
B4: Asyn worst peptide (MDVFMKGLSKAK) of alpha‐synuclein, carboxyfluorescein-labeled (peptide)
peptide: MDVFMKGLSKAK
modifications: also: 5(6)-carboxyfluorescein label, site not given here

Assay in all cases: MST
Assay [1] deals with amyloid beta peptide (strongest wild‐type SERF2 binding peptide from amyloid beta), carboxyfluorescein-labeled (human).
In the next assay the target is T1, wild‐type SERF2 (human, UniProt P84101-1 1-59).
T1 sequence: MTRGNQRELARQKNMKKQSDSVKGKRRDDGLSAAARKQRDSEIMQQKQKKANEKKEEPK

Assay [2] deals with B4.
For assay [3], the target named is B2.
The target in assay [4] is B3.

As a reminder, the Kd is the equilibrium constant for the complex coming apart. Read a low Kd as higher affinity.

B1: wild‐type SERF2 (natural protein)
chain: MTRGNQRELARQKNMKKQSDSVKGKRRDDGLSAAARKQRDSEIMQQKQKKANEKKEEPK
Consider B1, for which the Kd in assay [1] is 9.6 µM.

In the case of B2, the binding result with wild‐type SERF2 is given as “binds”. In turn, B3 had a Kd with wild‐type SERF2 of 3 µM. Turning to B4, in the assay with wild‐type SERF2, the binding result is “binds”.

B5: SERF2 KR mutant (natural protein)
chain: MTRGNQRELARQKNMRRQSDSVRGKRRDDGLSAAARKQRDSEIMQQKQKKANEKKEEPK
As to B5, the binding result in assay [2] and in assay [3] was “binds” in each case. Further, the figures for the Kd in assay [4] and in assay [1] were 2.6 µM and 6.6 µM, respectively.
